Measurements taken from the supplement of paper PMC11502859.

System: HEK293T
Test: median enrichment of reporter reads in eGFP-reduced (low/intermediate) vs eGFP-high sorted cells (eGFP-extension fusion abundance) (ratio); higher = stronger loss of eGFP-fusion protein abundance (more destabilising extension)
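Note: lentiviral eGFP-IRES-mCherry reporter pool sorted by FACS 96 h post-transduction, gated on mCherry-high cells, Illumina read counts normalized per million, median across four biological replicates.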

Substance	median enrichment
SDDILSPCVAFYLRFPRPAMFSSSPFSLYKNSFSRKTLISIVYMSLWLRH [ACTR3C]	17.1
LCLI [UBP1]	3.44
KFGAQTSP [SPRR3]	0.603
LGPVAGRPAPAPPPPTGVPAHSCGKGGEGRRARPEQGAGGRAQYLTRAAVLINVPMAGPRSEPASSATVTFSLRDGGGGSLSR [DUSP9]	2.08
WPLGRPPAQLPCPPPPSSSGFSVLGRLSWGRRWEGRDQLSSLAGKRGCGSQGGLQGTGMSGGHQAQRKRKQREFTGPPEKSQS [CRHR2]	1.19
WVEKKKKIKKQNKTHAPKK [NPIPB6]	1.29
CAS [FAM118B]	0.212
YHH [FAM229B]	0.611
LSGP [LCE1C]	0.649
RCLPRAVDARAPVHTHTSTLTSPQCCASSTRFYSSQNCILNAQETFKLFMKRCVYREEEGANAVRIMFRL [UBE2QL1]	11.9
LTLQAGTVLLLSLQYIR [GTPBP2]	9.07
SNTAFNWELETH [PREPL]	0.178
LARAPRGHLGRPREAEGHGVGGSRRVPASMVPALDLQLP	5.4
YISLFVSMRCPTGPI [CADM1]	15.7
GGAAAAWSLRPSRPPSAAPSAAVCVAWASFQLTHGLKNRCFI [TMEM18]	5.44
QGQVICSLSAFTPFNSLTPCQTYLSGTSSPDTFQRREKK [CREBZF]	4.04
WGPGAFPRSSPSSI [RNASEK]	0.405
RQEGPSGRDGPGGGQMGRCGRHVIDSTEGLSCVPPTLPWTDSEGPPGTSAKAG [KCNF1]	5.07
VVVVV [Val05]	10.3
GEVLPGPRRGDREHHCHPGEPGAGAPGACRLRQGRCGRDDAALGCGVGSPKHPRQQPRPWPHQWHRGAPATGWPSGQPEHQGH [DECR2]	0.598
RAALLSSQAAPVPSPSTLEWSSSACFPSHRPATTPTMCRKHCLTIPHPPDNSQGWSPGHFQLLLSPCIVSLLCFFSLPPLLFL [RAB15]	7.07
SRDLDLGGVVRSSGRVPPGSPGEYMSPALGGVCYWPPTFLPRWTVLL [OXCT2]	3.71
CTKAWA [IFNGR2]	0.778
YGFHKHP [SELP]	1.36
SQPSPPSPGAAWGGKSCSLRRAQLAGAVPGHGRFPVTHSLRKPGVIGHLAGQRSWGWF [CLCN6]	3.27

Substance	median enrichment
LNRQDRLWERGSFHKRKMVGLFPE [C10orf53]	7.23
YLYHYSRSSSQHHLLATWDV [GCG]	12.4
RCVHSISEETTHRSFFSLF [GIPC2]	8.59
LAPRPRETGWRHGAGPSFHGACGCRAGGAAESGPGPLPAGGDFFFSYF [GNA11]	11.8
RCAGSFLPSVKGQRCADLIFQLTTCFKRKIAHEKCLLAFQSIFEITG [FAM104A]	5.07
GLPS [TMEM107]	0.716
KGN [CYTL1]	0.283
WKHFLPKVSGLRYTSIQQCIVIKILFQS [OR2L3]	7.3
LAVWAPRGLALLPGLGEPRAALPWQRQDVGERSLVQ [GRK6]	3.3
RKLLP [NOX4]	0.64
FILERNSTNVKNVTKLLSISLTLLHIRKFILEKNPTDVKNVAKPLSTPLNLLHIRDFILERNPTDVNNVVKLFTYPHTLLHIR [ZNF626]	8.24
DDDDD [Asp05]	0.224
SPWGGGKG [C6orf47]	1.46
RLLTHRHNLGH [MMP19]	8.57
LKKKKG [TNFAIP6]	3.07
RSKDNGVFFL [USP44]	1.94
KKKK [Lys04]	0.575
QKMTQKLEPTKLLTPC [ADGRL3]	1.01
RGGSASVPSLTSLGCCFSGVMSPLPLGYLPSTGQGPWWADGN [SFXN3]	21.3
RPPLSPECNKHQIPCVK [POLR2I]	3.52
WLLITLSHFLVMH [KRTAP22-2]	13.9
SVSGNHEGIWQ [MOAP1]	0.522
AAAA [Ala04]	11.6
TTT [Thr03]	0.568
LAGWDHPPAPQLHALP [INSYN2B]	0.774

Substance	median enrichment
WPSLRPTCTSGSKWVSSGSPARVLSECLCVCINICIPFGSIAAV [XPNPEP3]	17
SNLSPRRPEVNRHLGRGRACV [NAXD]	1.3
EFILERNSTNVKNVTKLLSISLTLLHIRKFILEKNPTDVKNVAKPLSTPLNLLHIRDFILERNPTDVNNVVKLFTYPHTLLHI [ZNF626]	2.95
WRLRASRRDLMPRGGGCL [CTU1]	5.49
YEQGGLGWPSPGGCGWGQETQPTTAPVSSPHKAAWVCTVCKLQDTLPGDPRGHSYTLFTRKIQRSQ [C2orf50]	9.09
QLPMPPQNWLLRVN [TSC22D1]	4.17
YNIYKLWVLDGLS [RBM41]	3.9
SNIYLK [TEX12]	0.685
QNLREPVV [CEP89]	0.464
SSMMHGDFHFHIFPFFCFCFSRNGGNPVYSMPVLSYSSLLLYILLLYQKN [HIVEP2]	33.7
LYPFPIHSQINYNGC [SCNM1]	7.94
SFAFIF [CHST9]	8.28
WRPRIQH [FAR1]	1.02
SALELLNLCPWGFHPNQCQGPPLPPSK [ACY1]	2
YQHWPSVFLGGTSQEPLPALLESQRGQEAVAGASTQLG [GDF5]	1.15
RLVIFFQRVMQSGYKRIFCLPYKGILPAAKFKQ [ARMC10]	14.7
SVGSPSKPRPLKPPLAAPRSSHYLCPEGGKSFPAHPPR [BCL7C]	1.39
YCPRAHRQLQGALVANKQHL [RAB3C]	2.13
QEITRWHQPRALARYGEGTWGPHLPPGLFREDPTVTPPSAVGAWRWAAGLNPPWGAPFLLPICVYIHK [MEF2B]	5.36
MMMMMMMM [Met08]	8.55
LNAFLASSAGGLSLGRGDSTHHWNFADRKRFLFSVL [KMT2C]	16.9
LRISQG [ESRRB]	1.67
GGTPEKMPGLIVPPQDMDSMWGQEGYLLPGKAISSSPVWGGMRPAPLVNTPFPRSSLPVLGGS [CIC]	6.48
KSTSSHETE [UNC5D]	1.07
KAAWPQYGPLFAGFSSSLEPPSVGGPPISPLKPALLFWGDPLLLSFPKHGVPWPAFFLCLWWGWGGLFLLAPSGGGGQVTRSG [JUP]	4.75

Substance	median enrichment
WGPPRARRTGTELSRGRSPRQAQLV [CDS2]	11.7
SCIAGLSSAASTECQAPHSAHPWALLRGPKTQEEERSACPLPPPLQYSLCAVV [SYCN]	10.8
NNNNNNNNNN [Asn10]	0.3
CLHW [RIMKLB]	3.73
YDGHISFIGE [CFLAR]	0.753
SREHENGSMTLPDTDAT [TP53]	0.734
YPWALPCYPFSPLEVPNLLHPLPLL [PPRC1]	3.39
WPPPAPTRPRRALSIS [SLCO4A1]	9.47
YSSSPVDEHLGWKFCSHTQDTAQDPAGVFFSVVRCTIGLMSIVLEDERKLRRTRSTDPDVIKHFVVSLSHR [BICD1]	3.59
HHHHH [His05]	0.675
YQSVL [RNASE9]	1.04
KPKEVPGTVSDLERSQKENNIIK [CELA2A]	0
WSPQHQGGPSLKRKEPTQVRGLPIPPSQVSTFALPPSHWGPCRSWSGLTVPSPGTQLKGPQPKL [CAND2]	8.57
WGPVHAGGLRDPHNPQTQSPRALPKPLAWLQSRLRAGATYPCAGTCSLCSVLITPP [RUSC2]	7.23
SGGV [DHRS2]	0.226
VSHAYAHAQPPSGSLESRADTHSHTHCLAKNTPCLPCHSPHSHSLSPDPCLSLDCRGTTHLFGIQGPQPTVPSPINCSRAPHK [FOXP3]	2.58
KHVVLWVHFV [ABHD3]	10.5
GSGLCLVLSLPGRCSTPYRGGQLRAWAASSWTQLSRSSCSAQGGHMSEPRSWTSTQEDASEGKEIFYGLRPECQY [KLRG2]	7.23
LSRL [ESM1]	10.3
SAMVSRAPHTRVYTRTMWYVARPGPGVRLGQPQLSLPLLLIQGVTRHLSLCYFWPQQEPVLGYFCPCSSQPNSGLAHPSPPPK [KCNJ11]	5.63
SLFSLTYRMLV [ZNF639]	6.9
YLKKTVLSAMTLYIKGVLFC [PLAAT3]	13.8
EEEEEEEE [Glu08]	0.411
WARVVARPCTTAIANQSPKAKFTCCSHPQ [MAGEB2]	8.12
YRRQRAWCDLVGSGNGRKRSPP [BTBD9]	6.86

Substance	median enrichment
YGDFPVQ [GPALPP1]	0.42
LRSLI [BAMBI]	7.1
LAGAAGVPPAPGPWVSAARPPPVPAVLSVHWGPSVVPFVENLLHKALLNCLELGTSIPMETSPVWGTWRICQRLSDMGPWQFY [NYNRIN]	6.95
RAAPPSGQKLK [ALG1L]	0.251
SGPPPAILSS [CYP4A22]	0.549
YLKNMYPL [ERCC5]	7.72
LVLCS [PIGX]	9.44
YKPRDGGCLAMAGR [DMRTC2]	0.676
KRRIYVLFKQEKVTLPMLSPLHNI [CDH10]	4.44
EIPQHGSLMFICCLSFLLSFPVCFQFSTSSAHPVLCPFVCVRTI [PCLO]	8.91
YAVQSSFSGA [NLRP8]	5.86
LPSTCPWGQEHPRPQKRERKGQKKEEKKNVQKDFRSSHSYF [TOB2]	0.26
GAAPQAGVEPDLGTKD [ZNF688]	0.378
LISHSYLLKYI [ELAVL4]	7.49
CRRQKISFVQKSKMKRM [INSIG2]	3.96
RKINYTFYSPPEDHCPKAGSICSNNAAFTSSVHLCS [OR4M1]	10.5
QQQQQQQQQ [Gln09]	0.104
SPIQKFFLILFHLPISC [TRIO]	7.34
SPERSQDPSRQHQLTDALVVPPSSPDCARSAVPSSGHLSSLWVPPHPSPC [RBP5]	3.81
LKEIWEIL [ZNF418]	16.1
QIQGHK [RILPL2]	0.367
RCPGDVTDSWQSHGPRLPKSVCWQLFP [S100P]	8.26
